# In US20180057604A1 (Genentech, published 2018):
# Substitutions are numbered along the chain they refer to. Numbers in names are those of the source.
# T1: cyno TfR extracellular domain (analogous construct to human TfR ecd) (cynomolgus monkey, UniProt Q5RDH6 87-760 (Pongo abelii entry))
# T1 construct: also called cynoTfR ecd
# T1 chain: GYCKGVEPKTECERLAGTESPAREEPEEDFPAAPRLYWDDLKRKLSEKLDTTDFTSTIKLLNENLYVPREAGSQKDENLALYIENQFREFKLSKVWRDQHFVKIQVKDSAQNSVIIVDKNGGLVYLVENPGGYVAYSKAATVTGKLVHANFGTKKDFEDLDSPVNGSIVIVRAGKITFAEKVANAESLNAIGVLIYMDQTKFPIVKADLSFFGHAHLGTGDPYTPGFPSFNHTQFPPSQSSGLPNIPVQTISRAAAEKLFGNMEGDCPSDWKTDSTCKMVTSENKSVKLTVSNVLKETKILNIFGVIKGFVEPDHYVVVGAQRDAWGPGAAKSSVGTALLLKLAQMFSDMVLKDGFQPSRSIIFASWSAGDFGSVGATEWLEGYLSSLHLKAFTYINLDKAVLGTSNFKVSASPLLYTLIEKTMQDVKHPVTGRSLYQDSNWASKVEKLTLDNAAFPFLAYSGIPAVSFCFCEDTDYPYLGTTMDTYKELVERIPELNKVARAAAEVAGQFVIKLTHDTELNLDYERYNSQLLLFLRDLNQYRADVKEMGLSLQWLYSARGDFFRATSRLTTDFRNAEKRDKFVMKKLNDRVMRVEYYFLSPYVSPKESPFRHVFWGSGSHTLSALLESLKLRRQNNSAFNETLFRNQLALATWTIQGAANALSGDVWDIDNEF
# B1: 5543 (antibody, V domains shown)
# VH: QLQLQESGPGLVKPSETLSLTCTVSGGSISSSSYYWGWIRQPPGKGLEWIGSIYYSGSTYYNPSLKSRVTISVDTSKNQFSLKLSSVTAADTAVYYCARVGHGISYFDLWGRGTLVTVSS
# VL: EIVLTQSPATLSLSPGERATLSCRASQSVSSYLAWYQQKPGQAPRLLIYDASNRATGIPARFSGSGSGTDFTLTISSLEPEDFAVYYCQQAYVWPPRTFGGGTKVEIK
# B2: 5643 (antibody, V domains shown)
# VH: B1 VH
# VL: B1 VL with A91S, Y92L, V93T
# B3: 5902 (antibody, V domains shown)
# VH: B1 VH with Y55R, Y60W
# VL: B1 VL with N53K, A91V, V93T
# B4: hu15G11.v5 IgG Ala variant D27A (HVR-L1) (antibody, V domains shown)
# VH: EVQLVQSGAEVKKPGASVKVSCKASGYTFTSYWMHWVRQAPGQRLEWIGEINPTNGRTNYIEKFKSRATLTVDKSASTAYMELSSLRSEDTAVYYCARGTRAYHYWGQGTMVTVSS
# VL: DIQMTQSPSSLSASVGDRVTITCRASANLYSNLAWYQQKPGKSPKLLVYDATNLADGVPSRFSGSGSGTDYTLTISSLQPEDFATYYCQHFWGTPLTFGQGTKVEIK
# notes: IgG in cell culture supernatant
# B5: hu15G11.v5 IgG Ala variant D50A (HVR-L2) (antibody, V domains shown)
# VH: B4 VH
# VL: B4 VL with A27D, D50A
# notes: as for B4
# B6: hu15G11.v5 IgG Ala variant D56A (HVR-L2) (antibody, V domains shown)
# VH: B4 VH
# VL: B4 VL with A27D, D56A
# notes: as for B4
# B7: hu15G11.v5 IgG Ala variant E50A (HVR-H2) (antibody, name in Kabat numbering, V domains shown)
# VH: B4 VH with E50A
# VL: B4 VL with A27D
# notes: as for B4
# B8: hu15G11.v5 IgG Ala variant E61A (HVR-H2) (antibody, name in Kabat numbering, V domains shown)
# VH: B4 VH with E62A
# VL: B4 VL with A27D
# notes: IgG in cell culture supernatant; Kabat numbers after 52a lie one below the linear count
# B9: hu15G11.v5 IgG Ala variant F29A (HVR-H1) (antibody, name in Kabat numbering, V domains shown)
# VH: B4 VH with F29A
# VL: B4 VL with A27D
# notes: as for B4
# B10: hu15G11.v5 IgG Ala variant F63A (HVR-H2) (antibody, name in Kabat numbering, V domains shown)
# VH: B4 VH with F64A
# VL: B4 VL with A27D
# notes: as for B8
# B11: hu15G11.v5 IgG Ala variant G26A (HVR-H1) (antibody, name in Kabat numbering, V domains shown)
# VH: B4 VH with G26A
# VL: B4 VL with A27D
# notes: as for B4
# B12: hu15G11.v5 IgG Ala variant G49A (HVR-H2) (antibody, name in Kabat numbering, V domains shown)
# VH: B4 VH with G49A
# VL: B4 VL with A27D
# notes: as for B4
# B13: hu15G11.v5 IgG Ala variant I51A (HVR-H2) (antibody, name in Kabat numbering, V domains shown)
# VH: B4 VH with I51A
# VL: B4 VL with A27D
# notes: as for B4
# B14: hu15G11.v5 IgG Ala variant I60A (HVR-H2) (antibody, name in Kabat numbering, V domains shown)
# VH: B4 VH with I61A
# VL: B4 VL with A27D
# notes: as for B8
# B15: hu15G11.v5 IgG Ala variant K62A (HVR-H2) (antibody, name in Kabat numbering, V domains shown)
# VH: B4 VH with K63A
# VL: B4 VL with A27D
# notes: as for B8
# B16: hu15G11.v5 IgG Ala variant K64A (HVR-H2) (antibody, name in Kabat numbering, V domains shown)
# VH: B4 VH with K65A
# VL: B4 VL with A27D
# notes: as for B8
# B17: hu15G11.v5 IgG Ala variant L29A (HVR-L1) (antibody, V domains shown)
# VH: B4 VH
# VL: B4 VL with A27D, L29A
# notes: as for B4
# B18: hu15G11.v5 IgG Ala variant L33A (HVR-L1) (antibody, V domains shown)
# VH: B4 VH
# VL: B4 VL with A27D, L33A
# notes: as for B4
# B19: hu15G11.v5 IgG Ala variant L54A (HVR-L2) (antibody, V domains shown)
# VH: B4 VH
# VL: B4 VL with A27D, L54A
# notes: as for B4
# B20: hu15G11.v5 IgG Ala variant M34A (HVR-H1) (antibody, name in Kabat numbering, V domains shown)
# VH: B4 VH with M34A
# VL: B4 VL with A27D
# notes: as for B4
# B21: hu15G11.v5 IgG Ala variant N28A (HVR-L1) (antibody, V domains shown)
# VH: B4 VH
# VL: B4 VL with A27D, N28A
# notes: as for B4
# B22: hu15G11.v5 IgG Ala variant N32A (HVR-L1) (antibody, V domains shown)
# VH: B4 VH
# VL: B4 VL with A27D, N32A
# notes: as for B4
# B23: hu15G11.v5 IgG Ala variant N52A (HVR-H2) (antibody, V domains shown)
# VH: B4 VH with N52A
# VL: B4 VL with A27D
# notes: IgG in cell culture supernatant; also called 15G11.N52A; 15G11.52A
# B24: hu15G11.v5 IgG Ala variant N53A (HVR-L2) (antibody, V domains shown)
# VH: B4 VH
# VL: B4 VL with A27D, N53A
# notes: as for B4
# B25: hu15G11.v5 IgG Ala variant N58A (HVR-H2) (antibody, name in Kabat numbering, V domains shown)
# VH: B4 VH with N59A
# VL: B4 VL with A27D
# notes: as for B8
# B26: hu15G11.v5 IgG Ala variant P52aA (HVR-H2) (antibody, name in Kabat numbering, V domains shown)
# VH: B4 VH with P53A
# VL: B4 VL with A27D
# notes: as for B4
# B27: 6266.14 Fab (Fab, V domains shown)
# VH: QVQLVQSGAEVKKPGSSVKVSCKASGGTLSGYGVSWVRQAPGQGLEWMGNIIPGFGVANYAQKFQGRVTITADESTSTAYMELSSLRSEDTAVYYCARSGGTKWGMLDVWGQGTMVTVSS
# VL: EIVMTQSPATLSVSPGERATLSCRASQSVSSNLAWYQQKPGQAPRLLIYGASTRATGIPARFSGSGSGTEFTLTISSLQSEDFAVYYCQQLILWPPRTFGGGTKVEIK
# B28: 6266.15 Fab (Fab, V domains shown)
# VH: B27 VH with V57T, W104Y, M106E
# VL: B27 VL
# Assays:
# [1] = biological target: BACE1 (HTRF long substrate and FRET short substrate assays of Example 9D); assay: cell-based or functional assay
# [2] = biological target: BACE1 in primary mouse cortical neurons (mouse, UniProt P56818 46-501); assay: cell-based or functional assay
# BACE1 in primary mouse cortical neurons, sequence (P56818 46-501): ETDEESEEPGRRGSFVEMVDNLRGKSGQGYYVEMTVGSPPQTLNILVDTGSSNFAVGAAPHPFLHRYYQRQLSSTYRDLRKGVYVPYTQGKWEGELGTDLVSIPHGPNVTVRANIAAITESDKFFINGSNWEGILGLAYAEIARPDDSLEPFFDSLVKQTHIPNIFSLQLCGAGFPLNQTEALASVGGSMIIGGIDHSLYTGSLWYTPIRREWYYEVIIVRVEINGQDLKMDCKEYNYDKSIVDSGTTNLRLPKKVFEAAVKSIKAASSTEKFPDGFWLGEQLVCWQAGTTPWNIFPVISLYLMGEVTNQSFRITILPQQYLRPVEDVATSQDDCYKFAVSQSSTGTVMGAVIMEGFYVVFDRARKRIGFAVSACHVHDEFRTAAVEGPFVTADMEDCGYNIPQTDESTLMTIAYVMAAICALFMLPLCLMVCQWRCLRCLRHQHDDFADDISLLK
# [3] = biological target: T1, cyno TfR extracellular domain …; assay: ELISA, TfR-coated plate, IgG in culture supernatant;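 note: human or cynomolgus TfR coated at 2 µg/mL, supernatant IgG titrated in 1:5 steps for 1 h, bound antibody read with HRP anti-human Fcγ and TMB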
# [4] = biological target: T2, human TfR extracellular domain with N-terminal His tag (human, UniProt P02786 89-760); assay: as above
# T2 construct: Biotinylated in some assays; also called huTfR; HuTfR
# T2 sequence (P02786 89-760 G142S): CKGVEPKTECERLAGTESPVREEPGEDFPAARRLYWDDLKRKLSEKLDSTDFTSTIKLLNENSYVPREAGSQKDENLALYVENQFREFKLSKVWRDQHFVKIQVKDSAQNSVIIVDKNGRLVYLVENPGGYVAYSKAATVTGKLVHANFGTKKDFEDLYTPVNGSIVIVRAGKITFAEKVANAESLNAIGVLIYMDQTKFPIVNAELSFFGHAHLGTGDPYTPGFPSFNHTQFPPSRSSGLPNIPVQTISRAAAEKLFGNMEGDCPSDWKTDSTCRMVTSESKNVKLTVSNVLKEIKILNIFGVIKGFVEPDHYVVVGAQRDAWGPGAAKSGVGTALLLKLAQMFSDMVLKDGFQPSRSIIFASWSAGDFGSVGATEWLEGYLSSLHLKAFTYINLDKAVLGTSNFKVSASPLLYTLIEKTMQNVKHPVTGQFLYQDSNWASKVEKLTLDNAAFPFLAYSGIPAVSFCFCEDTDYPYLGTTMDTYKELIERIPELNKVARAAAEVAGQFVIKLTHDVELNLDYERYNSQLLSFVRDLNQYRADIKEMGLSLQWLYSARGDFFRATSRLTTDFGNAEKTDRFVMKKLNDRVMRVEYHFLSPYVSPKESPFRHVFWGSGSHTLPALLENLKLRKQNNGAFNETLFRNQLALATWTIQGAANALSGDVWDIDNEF
# [5] = biological target: His-tagged BACE1 protein (Example 15) (Homo sapiens (Human), UniProt P56817 22-457); assay: SPR (Biacore T200), Fab on captured His-BACE1;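 note: Single-cycle kinetics with serially diluted Fab flowed over BACE1 captured by anti-His antibody on a CM5 chip, rates fitted to a one-to-one Langmuir model, Kd derived as koff over kon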
# His-tagged BACE1 protein (Example 15), sequence (P56817 22-457 limits assumed): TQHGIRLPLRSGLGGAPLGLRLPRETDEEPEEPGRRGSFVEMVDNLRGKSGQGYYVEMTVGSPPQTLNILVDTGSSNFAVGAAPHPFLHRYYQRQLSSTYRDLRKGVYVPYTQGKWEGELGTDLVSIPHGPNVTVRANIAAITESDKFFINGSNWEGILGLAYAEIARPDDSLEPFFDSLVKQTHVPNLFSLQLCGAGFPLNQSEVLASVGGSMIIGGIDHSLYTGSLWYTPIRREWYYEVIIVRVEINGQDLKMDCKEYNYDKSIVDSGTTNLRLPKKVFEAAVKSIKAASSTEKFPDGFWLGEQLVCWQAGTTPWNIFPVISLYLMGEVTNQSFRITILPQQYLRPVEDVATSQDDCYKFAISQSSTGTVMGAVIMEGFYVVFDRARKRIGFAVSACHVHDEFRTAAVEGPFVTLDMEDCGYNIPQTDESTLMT
Binder,EC50 [3] [ng/mL],EC50 [4] [ng/mL],also measured
B1,–,–,"EC50, FRET short substrate [1]: 9.11 nM; EC50, HTRF long substrate [1]: 30 nM; IC50, Abeta x-40 in mouse cortical neurons [2]: 18.3 nM; maximal % inhibition of Abeta x-40 [2]: 65%"
B2,–,–,"EC50, FRET short substrate [1]: 1.41 nM; EC50, HTRF long substrate [1]: 17.7 nM; IC50, Abeta x-40 in mouse cortical neurons [2]: 9.71 nM; maximal % inhibition of Abeta x-40 [2]: 60%"
B3,–,–,"IC50, Abeta x-40 in mouse cortical neurons [2]: 1.59 nM; maximal % inhibition of Abeta x-40 [2]: 67%"
B4,0.8,0.2,–
B5,0.5,0.2,–
B6,0.5,0.3,–
B7,410,–,–
B8,0.6,0.2,–
B9,–,1.5,–
B10,0.6,0.4,–
B11,6.1,1.1,–
B12,1.1,0.3,–
B13,0.6,0.2,–
B14,0.7,0.3,–
B15,0.7,0.3,–
B16,0.6,0.3,–
B17,0.9,0.3,–
B18,0.1,0.05,–
B19,0.5,0.4,–
B20,1.1,0.4,–
B21,0.8,0.2,–
B22,4,1.6,–
B23,0.9,0.3,–
B24,0.6,0.3,–
B25,80.4,6.3,–
B26,8.1,3.9,–
B27,–,–,Kd [5]: 0.57 nM; koff [5]: 0.000474 s⁻¹; kon [5]: 839000 M⁻¹ s⁻¹
B28,–,–,Kd [5]: 0.64 nM; koff [5]: 0.000495 s⁻¹; kon [5]: 774000 M⁻¹ s⁻¹
